Four molecules from US20130315927A1 (Novartis, published 2013) can be followed below.

Where two headings read alike, the source gives them in different places.

Assay [1] has as its target biotinylated PCSK9-Avi-His6 (human) (UniProt Q8NBP7). The assay is described as follows: ForteBio Octet bio-layer interferometry, biotinylated PCSK9-Avi-His6 on streptavidin sensors, Fab in solution. In general terms: In BLI a coated tip is dipped into the sample, and binding shifts an interference pattern.
In assay [2] the target is T1, hFgfr4 hFc (human, UniProt P22455).
T1 sequence (fusion chain, looked up): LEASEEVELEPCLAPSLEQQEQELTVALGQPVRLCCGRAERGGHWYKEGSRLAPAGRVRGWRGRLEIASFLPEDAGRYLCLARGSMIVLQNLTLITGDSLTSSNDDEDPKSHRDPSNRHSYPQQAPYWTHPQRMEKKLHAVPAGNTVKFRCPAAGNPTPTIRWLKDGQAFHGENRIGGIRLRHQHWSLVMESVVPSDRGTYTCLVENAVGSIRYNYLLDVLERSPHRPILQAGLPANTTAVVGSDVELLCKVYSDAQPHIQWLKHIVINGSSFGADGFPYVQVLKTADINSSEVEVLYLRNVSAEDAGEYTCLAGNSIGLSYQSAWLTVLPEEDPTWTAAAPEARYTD
The assay is described as follows: specificity ELISA, antigen coated at 88 ng per well, absorbance 650 nm. Background: ELISA stands for enzyme-linked immunosorbent assay.
Method: (§1) For specificity ELISAs on purified human and mouse IgGs, a 384-well plate was coated with a panel of purified human or mouse antigens at 88 ng per well and incubated overnight at 4° C. The plate was blocked and washed as described above, then 22 μL of purified mouse or human anti-PCSK9 antibody diluted to 2 μg/mL in PBS was added to each well. The plate was incubated for 1 hr at 37° C. then washed with PBST. […] The plate was incubated for 1 hr at room temperature, then washed and developed as described above.

For assay [3], the target named is T2, recombinant human PCSK9 (aa 31-692) with C-terminal His6 tag (human, UniProt Q8NBP7 31-692).
T2 construct: range 31-692; In the TR-FRET assay it carried a fluorophore (hPcsk9-AF); also called hPcsk9; hPCSK9
The assay can be described thus: solution equilibrium titration (SET), MSD electrochemiluminescence read-out.
Method: The binding kinetics of the final selected candidates were analyzed using a Solution Equilibrium Titration (“SET”) assay. Briefly, serial dilutions of human, cyno, mouse, or rat Pcsk9 were prepared, and anti-Pcsk9 Ab was added to each antigen concentration to reach a constant antibody concentration of 100 pM. 100 μL/well of each dilution mix was distributed in duplicate to a 96-well polypropylene microtiter plate (Greiner). The plate was sealed and incubated over night at room temperature. A 96-well Standard Bind microtiter plate (Meso Scale Discovery) was coated with 25 μL of 1 μg/mL Pcsk9 diluted in PBS. This plate was sealed and incubated overnight at 4° C. After the incubation the antigen-coated Standard Bind micro titer plate was washed three times with 200 μL per well PBS/0.05% (w/v) Tween 20. Subsequently, the plate was blocked with 150 μL/well PBS/5% (w/v) BSA and incubated for one hour at room temperature with shaking. The washing steps were repeated and 25 μL/well of the antibody-antigen preparation from the polypropylene microtiter plate was transferred into the antigen-coated Standard Bind plate. The Standard Bind plate was incubated for 60 min at room temperature with shaking. […] Electrochemiluminescence signals were generated and detected by a Sector Imager 6000 (Meso Scale Discovery).

Assay [4] concerns the target T2, recombinant human PCSK9 (aa 31-692) …. The assay is described as follows: solution equilibrium titration (SET): soluble human PCSK9 titrated against 100 pM antibody, free antibody captured on a Pcsk9-coated MSD plate; the concentration is that of human PCSK9.
Method: Briefly, serial dilutions of human, cyno, mouse, or rat Pcsk9 were prepared, and anti-Pcsk9 Ab was added to each antigen concentration to reach a constant antibody concentration of 100 pM. 100 μL/well of each dilution mix was distributed in duplicate to a 96-well polypropylene microtiter plate (Greiner). The plate was sealed and incubated over night at room temperature. A 96-well Standard Bind microtiter plate (Meso Scale Discovery) was coated with 25 μL of 1 μg/mL Pcsk9 diluted in PBS. This plate was sealed and incubated overnight at 4° C. After the incubation the antigen-coated Standard Bind micro titer plate was washed three times with 200 μL per well PBS/0.05% (w/v) Tween 20. Subsequently, the plate was blocked with 150 μL/well PBS/5% (w/v) BSA and incubated for one hour at room temperature with shaking. The washing steps were repeated and 25 μL/well of the antibody-antigen preparation from the polypropylene microtiter plate was transferred into the antigen-coated Standard Bind plate. The Standard Bind plate was incubated for 60 min at room temperature with shaking. […] Electrochemiluminescence signals were generated and detected by a Sector Imager 6000 (Meso Scale Discovery).
The target is the same in assay [5]. The assay can be described thus: TR-FRET competition, hPcsk9-AF (8 nM) and hLDL-R-Eu (1 nM). The text has this: Data are representative of at least two independent experiments.
For orientation: In TR-FRET formats the signal depends on donor and acceptor labels being close together.

Assay [6] has the same target. The assay can be described thus: cell-based or functional assay.
The target of another assay is Rat (Pcsk9 homolog) (rat, UniProt P59996). The assay is described as follows: solution equilibrium titration (SET), fit by the model of Piehler et al.
Sequence of Rat (Pcsk9 homolog) (P59996 31-691 limits assumed): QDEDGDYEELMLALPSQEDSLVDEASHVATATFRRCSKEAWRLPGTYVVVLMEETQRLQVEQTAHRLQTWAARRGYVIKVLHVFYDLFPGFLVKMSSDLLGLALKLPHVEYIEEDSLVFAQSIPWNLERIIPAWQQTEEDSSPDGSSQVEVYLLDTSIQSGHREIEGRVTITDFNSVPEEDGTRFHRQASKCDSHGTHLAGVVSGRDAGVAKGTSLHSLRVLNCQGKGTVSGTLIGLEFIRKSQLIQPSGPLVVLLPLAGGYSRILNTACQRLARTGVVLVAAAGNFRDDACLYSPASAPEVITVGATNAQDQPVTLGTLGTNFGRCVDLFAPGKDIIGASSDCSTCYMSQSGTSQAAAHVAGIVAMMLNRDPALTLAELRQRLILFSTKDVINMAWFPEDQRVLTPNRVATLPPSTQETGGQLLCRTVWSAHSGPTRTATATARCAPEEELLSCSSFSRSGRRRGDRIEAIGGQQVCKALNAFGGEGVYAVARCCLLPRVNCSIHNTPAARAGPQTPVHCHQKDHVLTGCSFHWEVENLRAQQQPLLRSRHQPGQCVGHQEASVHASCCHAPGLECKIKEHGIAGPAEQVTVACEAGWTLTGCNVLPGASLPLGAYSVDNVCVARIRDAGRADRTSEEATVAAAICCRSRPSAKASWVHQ
The target in assay [7] is T3, cynomolgus macaque PCSK9 with C-terminal his6 tag (cynomolgus monkey).
T3 chain: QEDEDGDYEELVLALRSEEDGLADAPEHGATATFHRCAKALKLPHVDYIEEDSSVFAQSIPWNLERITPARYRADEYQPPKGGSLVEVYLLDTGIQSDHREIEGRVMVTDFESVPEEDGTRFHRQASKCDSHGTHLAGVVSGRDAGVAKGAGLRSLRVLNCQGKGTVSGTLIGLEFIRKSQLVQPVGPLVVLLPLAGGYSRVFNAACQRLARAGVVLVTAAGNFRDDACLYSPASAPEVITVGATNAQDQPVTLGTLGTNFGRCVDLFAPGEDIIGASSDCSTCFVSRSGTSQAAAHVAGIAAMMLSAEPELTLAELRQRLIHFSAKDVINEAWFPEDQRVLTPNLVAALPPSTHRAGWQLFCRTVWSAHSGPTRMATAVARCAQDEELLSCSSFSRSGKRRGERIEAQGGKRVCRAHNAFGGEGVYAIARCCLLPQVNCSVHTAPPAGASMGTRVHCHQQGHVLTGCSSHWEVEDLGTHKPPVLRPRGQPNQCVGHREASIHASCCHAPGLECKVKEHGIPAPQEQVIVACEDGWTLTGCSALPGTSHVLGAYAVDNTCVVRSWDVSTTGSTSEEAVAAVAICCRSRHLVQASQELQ
The assay is described as above.
Method: (§2) The binding kinetics of the final selected candidates were analyzed using a Solution Equilibrium Titration (“SET”) assay. Briefly, serial dilutions of human, cyno, mouse, or rat Pcsk9 were prepared, and anti-Pcsk9 Ab was added to each antigen concentration to reach a constant antibody concentration of 100 pM. 100 μL/well of each dilution mix was distributed in duplicate to a 96-well polypropylene microtiter plate (Greiner). The plate was sealed and incubated over night at room temperature. A 96-well Standard Bind microtiter plate (Meso Scale Discovery) was coated with 25 μL of 1 μg/mL Pcsk9 diluted in PBS. This plate was sealed and incubated overnight at 4° C. After the incubation the antigen-coated Standard Bind micro titer plate was washed three times with 200 μL per well PBS/0.05% (w/v) Tween 20. Subsequently, the plate was blocked with 150 μL/well PBS/5% (w/v) BSA and incubated for one hour at room temperature with shaking. The washing steps were repeated and 25 μL/well of the antibody-antigen preparation from the polypropylene microtiter plate was transferred into the antigen-coated Standard Bind plate. The Standard Bind plate was incubated for 60 min at room temperature with shaking. After three additional washing steps, 25 μL of 1 μg/mL Sulfo-Tag-labeled goat anti-human-detection antibody (R32AJ-5, Meso Scale Discovery) diluted in PBS/1% (w/v) BSA/0.05% (w/v) Tween 20, buffer were added to each well and incubated one hour at room temperature with shaking. […] Electrochemiluminescence signals were generated and detected by a Sector Imager 6000 (Meso Scale Discovery).

Another assay addresses T4, murine PCSK9 (mouse, UniProt Q80W65 35-694, limits assumed).
T4 construct: also called mouse Pcsk9
The description is as above.

Assay [8] has as its target T1, hFgfr4 hFc. The assay is described as follows: specificity ELISA, antigen coated at 88 ng per well, absorbance 650 nm. The source holds these as a separate data set.
Method: as §1
Assay [9] has as its target T2, recombinant human PCSK9 (aa 31-692) …. The assay can be described thus: cell-based or functional assay. This is another data set of the same source.
A further assay deals with T5, HIS tag.
T5 construct: also called his6 tag; 6-His
T5 peptide: HHHHHH
The assay is described as follows: ELISA.

The target of assay [10] is T2, recombinant human PCSK9 (aa 31-692) …. The assay is described as follows: TR-FRET competition, labelled hPcsk9 (8 nM) and labelled hLDL-R (1 nM); MAB1 antibody as competitor.
Method: The percentage inhibition was calculated with the following formula: 100−[(normalized value of treated sample/averaged normalized value of untreated samples)×100]. The percentage inhibition dose response curves were plotted using Prism version 5 with the formula, Y=Bottom+(Top−Bottom)/(1+10̂((LogIC50−X)*HillSlope)) (GraphPad Prism Software).
For assay [11] the target is unchanged. The assay is described as follows: solution equilibrium titration (SET), MSD electrochemiluminescence read-out. This is another data set of the same source.
Method: Serial dilutions of Pcsk9 were prepared, and antibodies were added to each antigen concentration to reach a constant antibody concentration of 100 pM. 100 μL/well of each dilution mix was distributed in duplicate to a 96-well polypropylene microtiter plate (Greiner). The plate was sealed and incubated over night at room temperature. A 96-well Standard Bind microtiter plate (Meso Scale Discovery) was coated with 25 μL of 1 μg/mL Pcsk9 diluted in PBS. This plate was sealed and incubated over night at 4° C. After the incubation the antigen-coated Standard Bind micro titer plate was washed three times with 200 [L per well PBS/0.05% (w/v) Tween 20. Subsequently, the plate was blocked with 150 μL/well PBS/5% (w/v) BSA and incubated for one hour at room temperature with shaking. The washing steps were repeated and 25 μL/well of the antibody-antigen preparation from the polypropylene microtiter plate was transferred into the antigen-coated Standard Bind plate. The Standard Bind plate was incubated for 60 min at room temperature with shaking. […] Electrochemiluminescence signals were generated and detected by a Sector Imager 6000 (Meso Scale Discovery). […]

T4 sequence (Q80W65 other isoform, or with tags, fused parts or gaps limits assumed): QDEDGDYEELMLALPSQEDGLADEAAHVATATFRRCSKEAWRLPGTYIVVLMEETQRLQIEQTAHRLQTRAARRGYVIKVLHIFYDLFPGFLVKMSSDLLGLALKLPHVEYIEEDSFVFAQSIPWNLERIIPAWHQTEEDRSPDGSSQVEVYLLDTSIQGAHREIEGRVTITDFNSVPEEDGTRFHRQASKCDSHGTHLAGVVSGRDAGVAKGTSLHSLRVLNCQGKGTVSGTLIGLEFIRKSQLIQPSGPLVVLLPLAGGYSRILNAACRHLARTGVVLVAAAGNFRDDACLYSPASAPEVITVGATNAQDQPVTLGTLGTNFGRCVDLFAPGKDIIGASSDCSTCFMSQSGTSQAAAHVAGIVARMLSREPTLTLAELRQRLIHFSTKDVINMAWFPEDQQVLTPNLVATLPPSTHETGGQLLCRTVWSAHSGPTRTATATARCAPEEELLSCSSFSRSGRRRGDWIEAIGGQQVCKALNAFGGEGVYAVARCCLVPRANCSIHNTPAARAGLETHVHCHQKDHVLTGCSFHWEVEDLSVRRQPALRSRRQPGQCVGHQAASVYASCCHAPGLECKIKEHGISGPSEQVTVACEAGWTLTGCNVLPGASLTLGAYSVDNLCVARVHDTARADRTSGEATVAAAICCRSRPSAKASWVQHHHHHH
Method for Rat (Pcsk9 homolog): as §2
Method for murine PCSK9: as §2

B1: fully Humaneered Fab Clone #44 (Fab, part only; not given: kappa light chain, V domains shown, part only)
VH: QITLKESGPVLVKPTETLTLTCTVSGFSLSTSGVGVGWIRQPPGKALEWLADIWWDDNKYYNPSLKSRLTISKDTSKNQVVLTMTNMDPVDTATYYCARITTEGGFAYWGQGTLVTVSS
B1: the Kd (usually the concentration at which binding is half-saturated) in assay [1] came to 22.3 nM.

B2: Humaneered antibody MAB2 (antibody, human IgG1, V domains shown)
VH: QITLKESGPVLVKPTETLTLTCTVSGFSLSTSGVGVGWIRQPPGKALEWLADIWWDDNKYYNPSLKSRLTISKDTSKNQVVLTMTNMDPVDTATYYCARITTEGGFAYWGQGTLVTVSS
VL: DIQMTQSPSSLSASVGDRVTITCRAGQRISHNLHWYQQKPDESPRLLINFASRLISGVPSRFSGSGSGTDFTLTISSLQPEDFATYYCQQSNYWPLTFGQGTKLEIK
For B2, the binding result with hFgfr4 hFc [2] is “no binding (tested: 2 µg/mL (single concentration))”. For the same molecule, the Kd in assay [3] was 0.26 nM; with Rat (Pcsk9 homolog), greater than 10000 nM; in assay [7], 0.4 nM; in the assay with murine PCSK9 it was greater than 10000 nM. In addition, the “IC50 (read off the curve)” value in [4] is roughly 0.3 nM. For the same molecule, in assay [5], the IC50 – broadly, the point on the concentration scale where inhibition reaches its midpoint – was determined as 20 nM. Further, the “EC50, LDL uptake (DiI-LDL uptake by HepG2 cells with hPCSK9, flow cytometry)” value in assay [6] was determined as 210 nM. Also, the “EC50, LDL-R protection (surface LDL-R on HepG2 cells, flow cytometry)” value (“EC50, LDL-R protection” below) in assay [6] was found to be 324 nM.

B3: Humaneered antibody MAB3 (antibody, human IgG1, V domains shown)
VH: QVTLKESGPTLVKPTQTLTLTCTVSGFSLSTSGVGVGWIRQSPGKALEWLADIWWDDNKYYNPSLKSRLTISKDTSKNQVVLTMTNMDPVDTATYYCARITTEGGFAYWGQGTLVTVSS
VL: DIQMTQSPSSLSASVGDRVTITCRAGQRISHNLHWYQQKPDESPRLLINFASRLISGVPSRFSGSGSGTDFTLTISSLQPEDFATYYCQQSNYWPLTFGQGTKLEIK
For the molecule B3, the Kd in [3] is 0.3 nM; in the assay with Rat (Pcsk9 homolog), greater than 10000 nM; in assay [7], 0.4 nM; in the assay with murine PCSK9, greater than 10000 nM. In addition, in assay [4], the “IC50 (read off the curve)” value is roughly 0.3 nM. Further, the IC50 in [5] was determined as 28 nM. Further, the “EC50, LDL uptake (DiI-LDL uptake by HepG2 cells with hPCSK9, flow cytometry)” value in assay [6] is 168 nM. Besides, the “EC50, LDL-R protection” value in [6] amounted to 300 nM. Moreover, the binding result with hFgfr4 hFc [8] is “no binding (tested: 2 µg/mL (single concentration))”.

B4: mouse monoclonal antibody MAB1 (antibody, V domains shown)
VH: QVTLKESGPGILQPSQTLSLTCSFSGFSLSTSGMGVGWIRQPSGEGLEWLADIWWDDNKYYNPSLKSRLTVSKDTSSNQVFLKITSVDTADTATYYCALITTEGGFAYWGQGTLVTVSA
VL: DIVLTQSPATLSVTPGDSVSLSCRASQSINNNLHWYQQKSHESPRLLIKFASRSISGIPSKFSGSGSGTDFTLSINSVETEDFGMYFCQQSNYWPLTFGAGTNLELI
notes: also called parent mouse monoclonal antibody; murine anti-human Pcsk9 IgG1-kappa monoclonal antibody
Take B4: in assay [9], the “DiI-LDL-uptake by HepG2 cells treated with exogenous hPcsk9, EC50” value was determined as 194 nM. The binding result with HIS tag is “no binding”. Further, the “EC50, LDL-R protection” value in assay [6] was 309 nM. Moreover, the IC50 in [10] came out at 77 nM. Also, the Kd in assay [11] is 0.27 nM; in [7], 0.23 nM; with murine PCSK9, greater than 10000 nM.
